Source: patent US20240150441A1 (ARIZONA BOARD OF REGENTS ON BEHALF OF ARIZONA STATE …, published 2024)

Experiments:
[1] = biological target: spike (S) protein of the authentic parental Omicron variant (B.1.1.529) of SARS-CoV-2 (SARS-CoV-2, B.1.1.529 (Omicron) variant, UniProt P0DTC2 14-1273); assay: cell-based or functional assay
[2] = biological target: spike (S) protein of the BA.4/5 SARS-CoV-2 pseudovirus (SARS-CoV-2, Omicron subvariant BA.4/5, UniProt P0DTC2 14-1273); assay: cell-based or functional assay

B1: plant-made tixagevimab (pTixagevimab) (antibody, V domains shown)
VH: QMQLVQSGPEVKKPGTSVKVSCKASGFTFMSSAVQWVRQARGQRLEWIGWIVIGSGNTNYAQKFQERVTITRDMSTSTAYMELSSLRSEDTAVYYCAAPYCSSISCNDGFDIWGQGTMVTVSS
VL: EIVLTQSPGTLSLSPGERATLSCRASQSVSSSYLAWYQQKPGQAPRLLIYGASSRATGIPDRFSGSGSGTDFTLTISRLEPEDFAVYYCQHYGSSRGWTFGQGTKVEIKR
neutralization of authentic B.1.1.529 (Omicron) virus, foci-forming assay, IC50 [1]: 19.7 µg/mL
neutralization of BA.4/5 pseudovirus, luciferase reporter assay, IC50 [2]: 26.7 µg/mL
